# Measured values published in US5824638A, “Oral insulin delivery” (Shire Laboratories, Inc., priority 1995, dated 1998).
# System: Caco-2 cells
# Assay: Transport of insulin across Caco-2 cell monolayers (Transwell, apical to basal, RIA)
# Assay type: in vitro ADME, human
# Conditions: initial transport experiments, data not shown
# Text: The Caco-2 cell line has been established as the primary screening model for oral peptide delivery. Caco-2 cells are derived from a colon cancer and differentiate in culture to form intestinal epithelium similar to that found in the small intestine. The cells form a monolayer with many of the specific properties of the epithelial lining of the intestine: they form a brush border with normal enzymes, they form tight junctions between cells, and they acquire the barrier properties of an enterocyte sheet. When grown on permeable supports these cells can be used to screen drug microemulsion formulations.
# Caco-2 colon carcinoma cells were obtained from American Type Culture Collection (Rockville, Md.) and maintained in culture in high glucose DMEM with 10% fetal calf serum, plus pen/strep, at 37° C., in 5% CO2. Cells were subcultured roughly every 5-7 days, 1:3 in T75 flasks, or when cells were 80-90% confluent, as determined by visual inspection. […]
# For transport determinations, insulin transport enhancers were added to HBSS plus calcium and magnesium. […] Transport was measured by taking aliquots from the lower compartment, which was in contact with the basal surface of the cells. […] Aliquots were removed from each well and insulin levels determined by RIA and HPLC. Transport was calculated as percent transport per hour from top to bottom. […]
substance,measurement,value
^125 I labeled insulin: iodine-125 labeled insulin used in initial transport experiments,Transport of labeled insulin across Caco-2 cells,no increase in transport
